Data published in patent EP4636087A1, “ANTI-GPA33 ANTIBODY AND UTILIZATION THEREOF” (Kagoshima University, priority 2022, dated 2024).

What was measured:
Wnt/β-catenin signal [1] = experiment: Wnt/β-catenin reporter EC50 in 293STF cells expressing MOG; format: cell-based, human; settings: NC = low activity, EC50 could not be determined (taken as >30 nM for the ratio)
Experimental: (§1) The Wnt/β-catenin signal promoting activity of the anti-GPA33 antibody scFv-Rspo fragment fusion recombinant prepared in Example 18 was measured as follows. ONE-Glo™ + Tox Luciferase Reporter and Cell Viability Assay (Promega) was used for the measurement. […] The cells into which each vector was introduced were cultured for 2 days in DMEM medium containing 10% FBS (Nichirei), and then the cells were collected and seeded at 100 µL/well on a CulturPlate-96 (PerkinElmer). The next day, 100 µL of (1) control medium or (2) medium containing recombinant Rspo1FL-Fc or various anti-GPA33 antibody scFv-Rspo fragment fusion recombinant proteins prepared in Example 10 (10-fold serial dilution between 10000 and 0.001 ng/mL, final concentration 5000 to […]) was added to each well. […] The fluorescence value was measured using a Microplate Reader SH-9000 (CORONA). 100 µL of ONE-Glo (trademark) Reagent (Promega) was added to the plate and incubated at room temperature for 3 min, after which the luminescence value was measured using a NIVO microplate reader (PerkinElmer). […] Samples with low activity for which the EC50 value could not be determined were marked NC. […]
(§2) The Wnt/β-catenin signal promoting activity of the anti-GPA33 antibody scFv-Rspo fragment-Fc conjugate R1CRD-hFcm-tCAP-G17 prepared in Example 19 was measured as shown in Example 20. […]

[2] = system: Mouse small intestinal organoids; experiment: Mouse small intestinal organoid culture; format: cell-based; design: key: those in which clear proliferation was observed are indicated with ○; those in which proliferation was observed but to a weak extent are indicated with △; those in which no proliferation was observed are indicated with ×
Experimental: Mouse small intestinal organoid culture using anti-GPA33 antibody scFv-Rspo fragment fusion (Example 18) and anti-GPA33 antibody scFv-Rspo fragment-Fc conjugate (Example 19) was performed as shown below. Mouse small intestinal organoids (VERITAS ST-70931) were maintenance cultured in ENR medium obtained by adding 2 µg/mL of the recombinant Rspo1FL-Fc prepared in Example 10 to EN medium (DMEM/F-12 containing penicillin/streptomycin, 10 mM HEPES, GlutaMAX, 1xN2, 1xB27 (all Gibco), 1 mM N-acetylcysteine (FUJIFILM Wako Pure Chemical), 50 ng/mL mouse EGF (Gibco), and 100 ng/mL mouse Noggin (PEPROTECH)), or ENR+WA medium (DMEM/F-12 containing penicillin/streptomycin, 10 mM HEPES, GlutaMAX, 1xN2, 1xB27 (all Gibco), […] N-acetylcysteine (FUJIFILM Wako Pure Chemical), 50 ng/mL mouse EGF (Gibco), and 100 ng/mL mouse Noggin (PEPROTECH), 10% Afamin/Wnt3a CM (MBL), and 500 nM A-83-01 (FUJIFILM Wako Pure Chemical)). Mouse small intestinal organoids were collected with Gentle Cell Dissociation Reagent (STEMCELL), resuspended in EN medium and Matrigel (Corning), and seeded onto 48-well plates. 250 µL of (1) EN medium, (2) EN medium containing recombinant Rspo1FL-Fc (20 ng/mL or 1 µg/mL) prepared in Example 10, or (3) EN medium containing anti-GPA33 antibody scFv-Rspo fragment fusion or anti-GPA33 antibody scFv-Rspo fragment-Fc conjugate ([…]) was added to each well. The medium was changed once every three days, and the cells were cultured for six days.
Comparing organoids on the first day (Day 1) and the fifth day (Day 5) after seeding, those in which clear proliferation was observed are indicated with ○, those in which proliferation was observed but to a weak extent are indicated with △, and those in which no proliferation was observed are indicated with ×. Samples that were not evaluated are indicated with ND.

Wnt/β-catenin signal [3] = experiment: Wnt/β-catenin reporter EC50 in 293STF cells expressing GPA33; format: cell-based, human
Experimental: as §1, §2

- EC50 (Wnt/β-catenin signal [1]): 4.04 nM
- EC50 (Wnt/β-catenin signal [3]; 293STF cells expressing GPA33, Afamin/Wnt3a 883 ng/mL, 18 hr): 0.085 nM
- EC50(MOG)/ EC50(GPA33) (Wnt/β-catenin signal [3]; ratio, NC assumed >30 nM): 47.53
B1: R1CRD-hFcm-tCAP-G17: conjugate of azidized R1CRD-Fcm and DBCO-G17 scFv by tCAP and click reaction (conjugate)
chain: SRGIKGKRQRRISAEGSQACAKGCELCSEVNGCLKCSPKLFILLERNDIRQVGVCLPSCPPGYFDARNPDMNKCIKCKIEHCEACFSHNFCTKCKEGLYLHKGRCYPACPEGSSAANGTMECSSPAEPKSADKTHTCPPCPAPEAEGAPSVFLFPPKPKDTLMISRTPEVTCVVVDVSHEDPEVKFNWYVDGVEVHNAKTKPREEQYNSTYRVVSVLTVLHQDWLNGKEYKCAVSNKALPASIEKTISKAKGQPREPQVYTLPPSREEMTKNQVSLTCLVKGFYPSDIAVEWESNGQPENNYKTTPPVLDSDGSFFLYSKLTVDKSRWQQGNVFSCSVMHEALHNHYTQKSLSLSPGK
scFv: QMQLVQSGGGLVKPGGSLRLSCAASGFTFSSYNMNWVRQAPGKGLEWVSSISSSGDFMYYADSVKGRFTISRDNAKNSLYLQMSSLRAEDTAVYYCAREGPGTPFDYWGQGTLVTVSSGGGGSGGGGSGSTGSAIQLTQSPSSLSASVGDRVTITCRASQSISSFLNWYQHKPGKAPKLLIYVASSLQSGVPSRFSGSGSGTDFTLTISSLQPEDFATYYCQQSHNTPYTFGQGTKLEIKEPRTPRPCLVPRGSHHHHHHGA
- organoid proliferation (Day 1 vs Day 5) ([2]; 0.2 ng/ml): ×
- organoid proliferation (Day 1 vs Day 5) ([2]; 0.8 ng/ml): ×
- organoid proliferation (Day 1 vs Day 5) ([2]; 1.4 ng/ml): ×
- organoid proliferation (Day 1 vs Day 5) ([2]; 2 ng/ml): ×
- organoid proliferation (Day 1 vs Day 5) ([2]; 20 ng/ml): Δ
- organoid proliferation (Day 1 vs Day 5) ([2]; 100 ng/ml (conjugate section head, or cells marked *)): ○
- organoid proliferation (Day 1 vs Day 5) ([2]; 1000 ng/ml): ○
